# Experimental data published in the supplement of paper PMC10724198.
# ± gives the standard deviation of the averaged measurements.
# What was measured:
# Saccharomyces cerevisiae [1] = assay: protein stability index of tFT-peptide fusion (C-terminal peptide) (PSI (0-1 scale)); higher = more stable (slower turnover); details: genetic background: wild type; temperature: 30 C
# Saccharomyces cerevisiae [2] = assay: as above
# Procedure: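 MPS profiling in S. cerevisiae of the tFT-X12 degron library: putative degron peptides plus stable controls, 12 aa, fused to the C-terminus of a sfGFP-mCherry timer. Cells are FACS-sorted into 8 mCherry/sfGFP bins and deep-sequenced. PSI runs from 0 (unstable) to 1 (stable). Backgrounds are wild type, das1Δ and doa10Δ at 30 °C, and wild type, das1Δ, cdc34-1 and cdc53-1 at 37 °C; 2-3 technical replicates each.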
# [3] = genetic background: cdc34-1, temperature: 37 C
# [4] = genetic background: cdc53-1, temperature: 37 C
# [5] = genetic background: das1 deletion, temperature: 30 C
# [6] = genetic background: das1 deletion, temperature: 37 C
# [7] = genetic background: doa10 deletion, temperature: 30 C
# [8] = genetic background: wild type, temperature: 30 C
# [9] = genetic background: wild type, temperature: 37 C
# 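Further: PSI is a weighted mean of sequencing reads over stability bins, variants kept only with over 10 reads, mCherry proximal and sfGFP distal, peptide attached via GGGS linker.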
Sequence,protein stability index (Saccharomyces cerevisiae [1]),protein stability index (Saccharomyces cerevisiae [2]; [3]),protein stability index (Saccharomyces cerevisiae [2]; [4]),protein stability index (Saccharomyces cerevisiae [2]; [5]),protein stability index (Saccharomyces cerevisiae [2]; [6]),protein stability index (Saccharomyces cerevisiae [2]; [7]),protein stability index (Saccharomyces cerevisiae [2]; [8]),protein stability index (Saccharomyces cerevisiae [2]; [9])
AQLVYVITAVRT,0.42 ± 0.029,0.452 ± 0.017,0.458 ± 0.024,0.333 ± 0.031,0.569 ± 0.026,0.291 ± 0.025,0.315 ± 0.019,0.507 ± 0.029
GVFVWVVFVCTM,0.268 ± 0.053,0.145 ± 0.015,0.315 ± 0.029,0.198 ± 0.017,0.3718 ± 0.00094,0.167 ± 0.0025,0.201 ± 0.013,0.315 ± 0.028
IKSIKQNKIKTI,0.292 ± 0.008,0.619 ± 0.051,0.648 ± 0.021,0.653 ± 0.029,0.699 ± 0.026,0.186 ± 0.013,0.171 ± 0.079,0.246 ± 0.032
LFRFVFLLFGFW,0.446 ± 0.049,0.452 ± 0.019,0.428 ± 0.025,0.435 ± 0.015,0.566 ± 0.032,0.4885 ± 0.0013,0.423 ± 0.034,0.526 ± 0.026
CLVKIVIFFLFS,0.349 ± 0.035,0.22 ± 0.011,0.326 ± 0.016,0.217 ± 0.037,0.371 ± 0.0075,0.191 ± 0.012,0.211 ± 0.024,0.34 ± 0.019
ILISVNRVVLYC,0.2171 ± 0.00013,0.364 ± 0.016,0.4123 ± 0.0011,0.289 ± 0.027,0.461 ± 0.011,0.115 ± 0.014,0.14 ± 0.017,0.1901 ± 0.00075
VGAGVFAWLWVA,0.199 ± 0.024,0.533 ± 0.02,0.664 ± 0.016,0.59 ± 0.016,0.7101 ± 0.001,0.128 ± 0.025,0.145 ± 0.024,0.135 ± 0.0078
LPPHSASLSSSF,,0.701 ± 0.054,0.7591 ± 0.0059,0.635 ± 0.029,0.725 ± 0.011,0.665 ± 0.015,0.675 ± 0.022,0.704 ± 0.013
DNTYRIDIKNKQ,,0.764 ± 0.093,0.771 ± 0.04,0.641 ± 0.019,0.689 ± 0.0069,0.4753 ± 0.0045,0.466 ± 0.013,0.6553 ± 0.00098
AFYQSGGLVVVV,,0.618 ± 0.043,0.617 ± 0.016,0.459 ± 0.034,0.6279 ± 0.0048,0.45 ± 0.016,0.477 ± 0.024,0.591 ± 0.046
HSAIFLFFFFFG,,0.283 ± 0.11,0.4553 ± 0.0042,0.314 ± 0.022,0.444 ± 0.03,0.331 ± 0.051,0.296 ± 0.024,0.401 ± 0.034
RWRLWVGWGVVG,,0.621 ± 0.034,0.688 ± 0.022,0.521 ± 0.0056,0.691 ± 0.039,0.425 ± 0.029,0.368 ± 0.078,0.533 ± 0.059
NAAVQSGGRVAG,,0.67 ± 0.043,0.722 ± 0.05,0.638 ± 0.01,0.733 ± 0.0013,0.645 ± 0.025,0.646 ± 0.0076,0.696 ± 0.016
FFFWLLCAGWLL,,0.661 ± 0.01,0.622 ± 0.012,0.544 ± 0.044,0.656 ± 0.0071,0.551 ± 0.041,0.534 ± 0.0081,0.649 ± 0.0073
YIYIFLVWGWYC,,0.193 ± 0.056,0.314 ± 0.016,0.214 ± 0.033,0.4232 ± 0.0041,0.103 ± 0.013,0.132 ± 0.0065,0.201 ± 0.018
LLFFGFVGSCVF,,0.6341 ± 0.0023,0.6187 ± 0.0052,0.468 ± 0.028,0.671 ± 0.041,0.471 ± 0.047,0.485 ± 0.036,0.57 ± 0.0036
VGGREVSRAGGG,,0.62 ± 0.048,0.672 ± 0.0081,0.49 ± 0.027,0.578 ± 0.06,0.477 ± 0.0076,0.481 ± 0.011,0.534 ± 0.041
PACPPLPPRSPS,,0.634 ± 0.0068,0.7142 ± 0.0047,0.693 ± 0.028,0.737 ± 0.017,0.688 ± 0.069,0.7 ± 0.015,0.7 ± 0.024
VSVFWVFLLVAG,,0.223 ± 0.0059,0.375 ± 0.011,0.245 ± 0.024,0.4401 ± 0.0035,0.189 ± 0.012,0.218 ± 0.024,0.383 ± 0.016
GRTDFSTLLLIC,,0.491 ± 0.016,0.6912 ± 0.0053,0.564 ± 0.018,0.683 ± 0.019,0.106 ± 0.012,0.132 ± 0.039,0.16 ± 0.056
GAQQRVKERYIE,,0.648 ± 0.012,0.721 ± 0.027,0.636 ± 0.028,0.7346 ± 0.0027,0.6157 ± 0.0038,0.646 ± 0.03,0.741 ± 0.00086
GGGGVFGVWVWM,,0.533 ± 0.058,0.618 ± 0.018,0.511 ± 0.013,0.656 ± 0.0086,0.23 ± 0.017,0.272 ± 0.024,0.494 ± 0.014
